The target in assay [1] is Tomato Leaf Curl Sudan Virus (ToLCSDV) purified viral particles (Tomato Leaf Curl Sudan Virus). As to the kind of experiment: SPR single-cycle kinetics, ToLCSDV captured at 405 RU.
The target is the same in assay [2]. The assay can be described thus: SPR single-cycle kinetics, ToLCSDV captured at 185 RU.
Assay [3] shares this target. As to the kind of experiment: SPR single-cycle kinetics, ToLCSDV captured at 310 RU.
The target is the same in assay [4].

B1: Nb-To2 (VHH)
VHH: QVQLQESGGGSVQAGGSLRLSCVASGDTLRLCRMGWYRQAPGKGRELVSSMEIDGTTNYADSVKGRFTISQGDNRNTMYLQMNSLKPEDTAMYYCKMEGGYGGNCRLAIYNYWGQGTQVTVSS
In assay [1], B1 showed a Kd of 0.432 nM, an off-rate (koff) of 0.00161 s⁻¹ and an on-rate (kon) of 3.72e+06 M⁻¹ s⁻¹. In assay [2], this molecule had a Kd of 0.292 nM, a dissociation rate constant (koff) of 0.00135 s⁻¹ and a kon of 4.65e+06 M⁻¹ s⁻¹. Moreover, in assay [3], the Kd amounted to 0.374 nM, the koff amounted to 0.00151 s⁻¹ and the on-rate constant (kon) was found to be 4.05e+06 M⁻¹ s⁻¹. In assay [4], this molecule registered an A1 (% ToLCSDV Binding) of -0.842, an A2 (% ToLCSDV Binding) of 101, an EC20 (dilution of the NbTo2 sample) of 0.00459 and an EC80 (dilution of the NbTo2 sample) of 0.000613. In assay [4], this molecule registered an LOGx0 (log(dilution NbTo2)) of -2.78, a p of -1.38 and a span (% ToLCSDV Binding) of 102.

Usually Kd stands for the equilibrium constant for the complex coming apart. Read a high Kd as weaker binding. As a reminder, the koff is the rate constant with which the complex falls apart. A lower koff goes with a long-lived complex. As a reminder, the kon is the second-order rate constant of association. Low readings indicate slower complex formation, high ones faster complex formation.
